Assay [1] concerns LNCaP-FGC cells. Nature of the assay: MTT assay (cell growth / viability). The format is cell-based, human. Particulars: 5 days. The method, then: (§1) DU145 (1×10^3/well), PC-3 (1×10^3/well) and LNCaP-FGC (1.5×10^3/well) cells were seeded in 96-well plates 24 hours prior to serum starvation. Cells were starved of serum for 24 hours and then incubated in the serum-free medium with or without 12.5 μg/ml leptin for 5 days. 3-(4,5-dimethylthiazol-2-yl)-2,5-diphenyl tetrazolium bromide (MTT) was added to each well to a concentration of 0.5 mg/ml. After 3-hour incubation at 37° C., cells were lysed in 50% dimethylformamide and 20% SDS at 37° C. Optical densities (O.D.) at 550 nm and 670 nm were measured by a plate reader, and differential O.D. between 550 nm and 670 nm (O.D. 550 nm minus O.D. 670 nm) were determined. Each experiment was performed in quadruplicate, and the values are reported as mean±SD.
(§2) DU145 (0.5-1.0×10^3/well), PC-3 (0.5-1.0×10^3/well), and LNCaP FGC (0.75-1.5×10^3/well) cells were seeded in 96-well plates 24 hours prior to serum starvation. Cells were starved of serum for 24 hours and then incubated in the serum-free medium with or without cytokine(s), DHT and/or doxorubicin at indicated concentrations for 5 days. MTT was added to each well to a concentration of 0.5 mg/ml. After being incubated at 37° C. for 3 hours, cells were lysed in 50% dimethylformamide and 20% SDS at 37° C. Optical densities (OD) at 550 and 670 nm were measured by a plate reader, and differential OD between 550 and 670 nm (OD 550 minus OD 670 nm) were determined. Each experiment was performed in quadruplicate, and the values were reported as mean±S.D.
For orientation: Tetrazolium assays rely on reduction of a dye to a coloured formazan, in cell work by metabolically active cells.

Assay [2] has as its system PC-3 cells. Nature of the assay: MTT assay (cell growth / viability). Particulars: 5 days. The format is cell-based, human. On the procedure: as §1, §2
The test system of assay [3] is JNK. Nature of the assay: In vitro JNK assay on lysates of treated human cancer cells. The assay is classed as cell-based. The method, then: Eighty-percent confluent prostate cancer cells were starved in the serum-free medium for 24 hours and then treated by 12.5 μg/ml leptin or 10 μg/ml anisomycin for the indicated periods. In some experiments, cells were pretreated with SP600125 prior to cytokine stimulation as described below. Cells were washed twice with cold PBS, harvested by a scraper and centrifuged for 10 minutes at 700×g at 4° C. The pellet was homogenized in the cell lysis buffer (20 mM HEPES, pH 7.9, 300 mM NaCl, 1 mM EDTA, 15% glycerol, 0.5% NP-40, 1 mM Na3VO4, 1 μg/ml leupeptin, 5 μg/ml aprotinin, 1 μg/ml pepstatin and 1 mM PMSF) and incubated at 4° C. with gentle rocking for 30 minutes. This homogenate was centrifuged for 5 minutes at 15,000×g, and the supernatant was saved as a cell lysate and stored at −80° C. until use.
JNK activity was measured using the SAPK/JNK Assay Kit (Cell Signaling Technology Inc.) according to the manufacture's instructions. Briefly, JNK was precipitated in 250 μl of cell lysates (250 μg protein) with 2 μg of glutathione Sepharose beads immobilized by a recombinant fusion protein of the c-Jun N-terminus (1-89) and glutathione S-transferase as a JNK substrate. After being washed with the cell lysis buffer 3 times, the precipitates were incubated in 50 μl of the kinase buffer containing 100 μM ATP at 30° C. for 30 minutes. The reaction was stopped by addition of the SDS sample buffer. The N-terminal c-Jun (1-89) fusion protein was separated by SDS-polyacrylamide gel electrophoresis, and its phoshporylation was determined by Western blot analysis using anti-phospho-c-Jun (Ser-63) polyclonal antibody as described above. JNK protein levels in cell lysates were also measured by Western blot analysis using anti-JNK antibody to normalize sample variations.
Seventy-percent confluent cells were deprived of serum for 24 hours, followed by treatment with 1 μg/ml f- or g-adiponectin or 10 μg/ml anisomycin for indicated periods. After being rinsed with cold phosphate-buffered saline, cells were harvested using a scraper and collected by centrifugation at 700×g for 10 minutes at 4° C. The cell pellets were then homogenized in cell lysis buffer (20 mM HEPES, pH 7.9, 300 mM NaCl, 1 mM Na3VO4, 1 μg/ml leupeptin, 5 μg/ml aprotinin, 1 μg/ml pepstatin, and 1 mM phenylmethylsulfonyl fluoride) and rocked gently for 30 minutes at 4° C. The homogenates were centrifuged at 15,000×g for 5 minutes at 4° C., and the supernatants were saved as cell lysates and stored at −80° C. until use.
Using the stress-activated protein kinase/JNK assay kit, JNK activity was assessed with a fusion protein of the c-Jun NH2 terminus (amino acids 1 to 89) and glutathione S-transferase as a substrate according to the manufacture's instructions with some modifications as reported before (M. Onuma, et al., supra, 2003). Briefly, JNK was precipitated in cell lysates (250-500 μg of protein) with 2 μg of glutathione-Sepharose beads immobilized by the fusion protein. The precipitates were rinsed with the cell lysis buffer three times, followed by incubation in 50 μl of the kinase buffer containing 100 μM ATP at 30° C. for 30 minutes. The reaction was terminated by adding the SDS sample buffer. The substrate fusion protein was separated by SDS-polyacrylamide gel electrophoresis, and its phosphorylation by JNK was determined by Western blot analysis using anti-phospho-c-Jun (Ser-63) polyclonal antibody. To normalize sample variations, JNK protein levels were also determined by Western blot analysis using anti-JNK antibody.

Take “leptin: Recombinant human leptin purchased from R&D Systems; major adipose cytokine”: the “live cell mass (MTT)” value in assay [1] (12.5 μg/ml leptin, serum-free) is “did not influence”. Also, the “living cells (MTT)” value in assay [2] (12.5 μg/ml leptin, serum-free) was “increased living cells”. In addition, the “time of peak JNK activation after addition” value was determined as 15 min in assay [3] (DU145, 12.5 μg/ml leptin) and 15 min in assay [3] (PC-3, 12.5 μg/ml leptin). Besides, the “time of return of JNK activation to the basal level” value in assay [3] (DU145, 12.5 μg/ml leptin) came out at 45 min. The JNK activity result in assay [3] (DU145, 12.5 μg/ml leptin, up to 60 minutes) is listed as “stimulated JNK activity”; in assay [3] (LNCaP-FGC, 12.5 μg/ml leptin, up to 60 minutes), “did not influence JNK activity”; in assay [3] (PC-3, 12.5 μg/ml leptin, up to 60 minutes) it was “stimulated JNK activity”.

B1: f-adiponectin: Recombinant human full-length (non-proteolytic) adiponectin, about 30-kDa polypeptide; lot mainly HMW form (protein, UniProt Q15848 1-244, looked up)
chain: MLLLGAVLLLLALPGHDQETTTQGPGVLLPLPKGACTGWMAGIPGHPGHNGAPGRDGRDGTPGEKGEKGDPGLIGPKGDIGETGVPGAEGPRGFPGIQGRKGEPGEGAYVYRSAFSVGLETYVTIPNMPIRFTKIFYNQQNHYDGSTGKFHCNIPGLYYFAYHITVYMKDVKVSLFKKDKAMLFTYDQYQENNVDQASGSVLLHLEVGDQVWLQVYGEGERNGLYADNDNDSTFTGFLLYHDTN
modifications: full-length
notes: Recombinant human full-length (non-proteolytic) adiponectin, about 30-kDa polypeptide; lot mainly HMW form
Take B1: in assay [1] (1 μg/ml f-adiponectin, 10 nM DHT), the “effect on DHT-stimulated cell growth (MTT)” value is given as “significantly suppressed”. Moreover, the “effect on the conditioned medium stimulation of cell growth (MTT)” value in assay [1] (1 μg/ml f-adiponectin) and in assay [2] (1 μg/ml f-adiponectin) was “drastically suppressed” in each case. Further, the “effect on the doxorubicin suppression of cell growth (MTT)” value in assay [1] (1 μg/ml f-adiponectin) and in assay [2] (1 μg/ml f-adiponectin) was “enhanced the doxorubicin suppression” each time. Also, the “cell growth (MTT) at concentrations up to 1 μg/ml” value in assay [1] (serum-free) and in assay [2] (serum-free) was “inhibited cell growth in a dose-dependent manner” each time. Further, the “concentration at which the inhibitory effect on cell growth saturated” value in assay [1] (MTT) and in assay [2] (MTT) was 1 µg/mL throughout. Further, in assay [3] (DU145, PC-3, LNCaP-FGC and HepG2 cells, 1.0 μg/ml), the “time of peak JNK activation after addition” value was 10 min. Also, the JNK activation result in assay [3] (DU145, PC-3, LNCaP-FGC and HepG2 cells, 1.0 μg/ml, up to 60 minutes) is “further stimulated JNK activation”.

Values taken from patent US20060040861A1, “Method of treating, preventing, and diagnosing prostate cancer” (priority 2004, published 2006).
